Tests used:
[1] = biological target: Recombinant M. hyorhinis enolase K451L-K452L (Mycoplasma hyorhinis (strain HUB-1)) (UniProt P0DXB0)
[2] = biological target: Recombinant M. hyorhinis enolase K452L (Mycoplasma hyorhinis (strain HUB-1)) (UniProt P0DXB0)
[3] = biological target: Recombinant M. hyorhinis enolase K451L (Mycoplasma hyorhinis (strain HUB-1)) (UniProt P0DXB0)
[4] = biological target: fibronectin (UniProt P02751); assay: SPR; plasminogen or fibronectin immobilised on CM5 chips by amine coupling (600 RU); recombinant enolase proteins 0-4000 nM injected at 30 uL/min for 180 s, 20 °C, dissociation 1000 s; 10 mM HEPES, 150 mM NaCl, 3 mM EDTA, 0.05% surfactant P20; Biacore X100
Sequence of fibronectin (P02751 32-2477): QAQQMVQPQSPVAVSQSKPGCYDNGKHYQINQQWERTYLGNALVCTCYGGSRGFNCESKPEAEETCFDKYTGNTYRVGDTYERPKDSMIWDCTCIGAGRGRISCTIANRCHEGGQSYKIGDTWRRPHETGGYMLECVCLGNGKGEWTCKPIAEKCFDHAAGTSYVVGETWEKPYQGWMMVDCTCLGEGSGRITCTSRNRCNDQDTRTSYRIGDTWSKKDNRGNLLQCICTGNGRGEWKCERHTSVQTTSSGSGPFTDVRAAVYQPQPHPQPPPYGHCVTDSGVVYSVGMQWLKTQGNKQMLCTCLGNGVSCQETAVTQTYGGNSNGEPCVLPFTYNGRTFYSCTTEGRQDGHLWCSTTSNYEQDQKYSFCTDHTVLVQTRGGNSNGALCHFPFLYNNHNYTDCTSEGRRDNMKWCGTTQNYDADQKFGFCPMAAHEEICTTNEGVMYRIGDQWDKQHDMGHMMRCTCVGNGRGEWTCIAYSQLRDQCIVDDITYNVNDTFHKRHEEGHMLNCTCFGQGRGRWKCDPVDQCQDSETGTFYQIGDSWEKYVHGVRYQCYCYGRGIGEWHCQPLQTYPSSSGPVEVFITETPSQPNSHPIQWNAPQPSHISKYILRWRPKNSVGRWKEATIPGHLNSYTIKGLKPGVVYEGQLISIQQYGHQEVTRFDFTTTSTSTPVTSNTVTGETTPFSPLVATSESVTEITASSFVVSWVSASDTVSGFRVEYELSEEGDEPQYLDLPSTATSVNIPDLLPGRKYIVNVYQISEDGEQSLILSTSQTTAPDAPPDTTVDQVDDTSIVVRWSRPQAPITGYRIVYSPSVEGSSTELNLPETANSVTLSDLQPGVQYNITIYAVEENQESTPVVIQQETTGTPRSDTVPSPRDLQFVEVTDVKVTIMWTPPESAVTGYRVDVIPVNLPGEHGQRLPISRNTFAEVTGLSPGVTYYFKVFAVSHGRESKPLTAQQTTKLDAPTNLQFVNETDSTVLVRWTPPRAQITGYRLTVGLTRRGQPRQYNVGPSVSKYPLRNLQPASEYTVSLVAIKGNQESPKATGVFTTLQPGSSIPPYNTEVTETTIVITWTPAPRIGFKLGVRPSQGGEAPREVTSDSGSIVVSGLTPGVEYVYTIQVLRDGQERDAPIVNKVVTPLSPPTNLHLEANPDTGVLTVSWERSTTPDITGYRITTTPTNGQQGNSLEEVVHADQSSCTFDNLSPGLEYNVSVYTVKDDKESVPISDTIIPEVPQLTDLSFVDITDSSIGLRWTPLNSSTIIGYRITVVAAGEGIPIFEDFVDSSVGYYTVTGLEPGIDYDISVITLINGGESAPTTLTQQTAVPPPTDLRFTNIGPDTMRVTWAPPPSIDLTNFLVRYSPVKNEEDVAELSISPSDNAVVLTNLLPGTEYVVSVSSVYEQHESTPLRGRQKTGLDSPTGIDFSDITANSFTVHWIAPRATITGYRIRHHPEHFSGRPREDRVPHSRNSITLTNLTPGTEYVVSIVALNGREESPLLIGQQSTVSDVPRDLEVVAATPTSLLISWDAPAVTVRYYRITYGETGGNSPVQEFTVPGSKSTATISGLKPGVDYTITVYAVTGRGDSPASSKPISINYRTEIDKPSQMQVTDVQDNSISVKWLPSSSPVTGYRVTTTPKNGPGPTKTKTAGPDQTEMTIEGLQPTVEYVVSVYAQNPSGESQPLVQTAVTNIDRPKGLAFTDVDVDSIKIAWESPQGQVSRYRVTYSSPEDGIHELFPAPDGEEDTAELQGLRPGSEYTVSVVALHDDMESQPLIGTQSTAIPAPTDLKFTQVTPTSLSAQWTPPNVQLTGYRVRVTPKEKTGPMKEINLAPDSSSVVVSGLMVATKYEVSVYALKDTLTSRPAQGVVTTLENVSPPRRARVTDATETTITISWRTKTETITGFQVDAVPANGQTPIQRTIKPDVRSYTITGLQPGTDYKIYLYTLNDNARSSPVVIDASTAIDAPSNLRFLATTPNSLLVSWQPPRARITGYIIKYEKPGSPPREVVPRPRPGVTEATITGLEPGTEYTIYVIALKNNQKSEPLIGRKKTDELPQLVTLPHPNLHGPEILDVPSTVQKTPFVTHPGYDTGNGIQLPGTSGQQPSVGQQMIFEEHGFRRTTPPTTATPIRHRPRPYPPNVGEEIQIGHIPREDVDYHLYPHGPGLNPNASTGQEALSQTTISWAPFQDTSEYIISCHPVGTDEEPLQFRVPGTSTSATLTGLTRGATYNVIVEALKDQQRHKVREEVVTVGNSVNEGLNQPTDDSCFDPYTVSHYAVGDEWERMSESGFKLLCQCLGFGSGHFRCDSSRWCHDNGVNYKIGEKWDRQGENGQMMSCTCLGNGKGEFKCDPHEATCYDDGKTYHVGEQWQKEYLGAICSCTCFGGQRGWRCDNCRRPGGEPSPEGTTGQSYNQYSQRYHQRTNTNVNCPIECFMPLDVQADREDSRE

[5] = biological target: plasminogen; assay: as above

## plasminogen (natural protein)
[1]
  plasmin activity (OD 405 nm) of plasminogen held in wells coated with the mutant, after tPA, compared with WT rEno-bound plasminogen (printed percent, seemingly the decrease): 50.1%
[2]
  plasmin activity (OD 405 nm) of plasminogen held in wells coated with the mutant, after tPA, compared with WT rEno-bound plasminogen (printed percent, seemingly the decrease): 30.5%
[3]
  plasmin activity (OD 405 nm) of plasminogen held in wells coated with the mutant, after tPA, compared with WT rEno-bound plasminogen (printed percent, seemingly the decrease): 39.5%

## Recombinant M. hyorhinis enolase K452L (from UniProt P0DXB0 1-450) (enzyme)
[4]
  Kd: 70.5 nM
[5]
  Kd: 15.8 nM

## Recombinant M. hyorhinis enolase K451L (from UniProt P0DXB0 1-450) (enzyme)
[4]
  Kd: 77.9 nM
[5]
  Kd: 28 nM

## Recombinant M. hyorhinis enolase K451L-K452L (from UniProt P0DXB0 1-450) (enzyme)
[4]
  Kd: 75.2 nM
[5]
  Kd: 59.4 nM

## Recombinant M. hyorhinis enolase, wild-type (from UniProt P0DXB0 1-450) (enzyme; other documents disagree on this pair)
[4]
  Kd: 14.3 nM
